In US20190055316A1:
pKd: −log10 of the molar value.

Experiments:
[1] = target: Soluble human MSLN (UniProt Q13421); assay: Biacore; published value
[2] = target: Native hu MSLN (cells) (UniProt Q13421); assay: KinExA
[3] = target: Soluble human MSLN (UniProt Q13421); assay: Biacore

Sequence of Soluble human MSLN (Q13421 296-606): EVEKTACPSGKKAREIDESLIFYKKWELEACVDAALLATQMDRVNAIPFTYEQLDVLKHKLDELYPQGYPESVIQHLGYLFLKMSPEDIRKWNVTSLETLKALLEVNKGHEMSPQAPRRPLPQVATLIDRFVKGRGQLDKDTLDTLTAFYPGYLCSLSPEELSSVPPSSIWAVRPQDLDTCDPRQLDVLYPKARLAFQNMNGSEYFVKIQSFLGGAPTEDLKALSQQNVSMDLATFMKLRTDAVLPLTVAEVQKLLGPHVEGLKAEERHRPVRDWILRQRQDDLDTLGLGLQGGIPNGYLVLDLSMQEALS
Sequence of Native hu MSLN (cells) (Q13421 296-606): as above

Substance: Morab-009 (ssI CDRs)
- pKd [1]: 8.82
- pKd [2]: 11.66
- pKd [3]: 9.80
